Among the data in patent US20110171218A1 are IC50 (WEHI Assay), normalized (normalized to TNFR2-h(1)Fc wt) values, retold here.

TNFR2-h(1)Fc, sequence (chain): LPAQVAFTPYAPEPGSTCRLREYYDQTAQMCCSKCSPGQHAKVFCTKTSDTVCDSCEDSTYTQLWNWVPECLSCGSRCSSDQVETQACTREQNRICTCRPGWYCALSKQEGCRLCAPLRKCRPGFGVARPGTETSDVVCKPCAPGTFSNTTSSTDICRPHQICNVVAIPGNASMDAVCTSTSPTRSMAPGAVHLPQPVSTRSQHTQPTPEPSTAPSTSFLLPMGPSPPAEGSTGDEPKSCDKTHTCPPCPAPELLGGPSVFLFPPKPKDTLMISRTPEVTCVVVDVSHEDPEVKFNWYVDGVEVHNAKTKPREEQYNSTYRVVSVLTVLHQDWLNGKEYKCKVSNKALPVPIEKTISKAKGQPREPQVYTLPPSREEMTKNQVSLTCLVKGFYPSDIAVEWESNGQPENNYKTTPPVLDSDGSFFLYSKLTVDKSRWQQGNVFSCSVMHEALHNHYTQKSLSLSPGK

The experiment concerns the target TNF-alpha. The experiment can be described thus: cell-based or functional assay. Set-up: unit not given beside the values.
In turn, D47N S202N TNFR2-h(1)Fc (Fc fusion) yielded an IC50 (WEHI Assay), normalized (normalized to TNFR2-h(1)Fc wt) of 1.1.

On to D47N TNFR2-h(1)Fc (Fc fusion), for which the IC50 (WEHI Assay), normalized (normalized to TNFR2-h(1)Fc wt) is 1.9.

The substance D47N/E155N TNFR2-h(1)Fc (Fc fusion) registered an IC50 (WEHI Assay), normalized (normalized to TNFR2-h(1)Fc wt) of 1.6.

Regarding D47N/G253N TNFR2-h(1)Fc (Fc fusion), the IC50 (WEHI Assay), normalized (normalized to TNFR2-h(1)Fc wt) amounted to 3.

With E155N G253N TNFR2-h(1)Fc (Fc fusion), the IC50 (WEHI Assay), normalized (normalized to TNFR2-h(1)Fc wt) is 0.57.

With “E155N S202N G253N TNFR2-h(1)Fc (Fc fusion)”, the IC50 (WEHI Assay), normalized (normalized to TNFR2-h(1)Fc wt) stood at 0.25.

In turn, S202N G253N TNFR2-h(1)Fc (Fc fusion) registered an IC50 (WEHI Assay), normalized (normalized to TNFR2-h(1)Fc wt) of 0.23.

T203N P205S TNFR2-h(1)Fc (Fc fusion) registered an IC50 (WEHI Assay), normalized (normalized to TNFR2-h(1)Fc wt) of 0.29.

Substance T222N TNFR2-h(1)Fc (Fc fusion) gave an IC50 (WEHI Assay), normalized (normalized to TNFR2-h(1)Fc wt) of 0.25.

TNFR2-h(1)Fc (Fc fusion) showed an IC50 (WEHI Assay), normalized (normalized to TNFR2-h(1)Fc wt) of 1.
